{"source": "patent US20250197510A1", "about": "(published 2025)", "molecular_target": "T1, FLT3 on Nalm16 cells (human, UniProt P36888 27-993)", "T1 construct": "whole, on cells; Also used for FLT3 on primary leukemic cells of patients in the functional rows; also called NALM16 (FLT3+); FLT3 on leukemic cells", "T1 sequence (looked up)": "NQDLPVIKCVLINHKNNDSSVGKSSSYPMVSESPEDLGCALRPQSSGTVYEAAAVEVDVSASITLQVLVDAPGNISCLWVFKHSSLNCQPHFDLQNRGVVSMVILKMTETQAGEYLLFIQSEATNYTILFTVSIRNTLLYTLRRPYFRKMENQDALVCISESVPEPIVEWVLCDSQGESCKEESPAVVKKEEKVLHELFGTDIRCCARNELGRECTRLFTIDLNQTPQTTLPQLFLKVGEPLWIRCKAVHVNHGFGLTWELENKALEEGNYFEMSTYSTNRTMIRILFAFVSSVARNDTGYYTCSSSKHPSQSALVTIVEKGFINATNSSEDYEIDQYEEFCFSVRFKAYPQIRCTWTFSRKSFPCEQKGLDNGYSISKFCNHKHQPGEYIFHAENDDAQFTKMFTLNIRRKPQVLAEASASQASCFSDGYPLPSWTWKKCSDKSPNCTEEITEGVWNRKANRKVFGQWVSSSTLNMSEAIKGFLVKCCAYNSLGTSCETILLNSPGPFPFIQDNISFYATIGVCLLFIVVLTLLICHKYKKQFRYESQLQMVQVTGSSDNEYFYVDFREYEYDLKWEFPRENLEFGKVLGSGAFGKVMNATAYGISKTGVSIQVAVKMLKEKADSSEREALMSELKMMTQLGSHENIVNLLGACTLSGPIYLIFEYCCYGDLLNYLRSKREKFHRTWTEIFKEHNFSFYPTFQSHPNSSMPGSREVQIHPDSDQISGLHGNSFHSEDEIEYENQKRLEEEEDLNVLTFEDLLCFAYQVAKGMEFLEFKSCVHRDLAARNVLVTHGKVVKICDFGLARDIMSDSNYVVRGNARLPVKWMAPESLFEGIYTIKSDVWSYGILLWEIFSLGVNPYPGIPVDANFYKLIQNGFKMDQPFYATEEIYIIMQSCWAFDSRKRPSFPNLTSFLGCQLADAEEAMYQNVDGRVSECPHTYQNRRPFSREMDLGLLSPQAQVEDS", "assay": "flow cytometry on NALM16 (FLT3+) cells, PE-conjugated anti human Fcγ secondary antibody", "experimental": "In addition, antibody binding affinity was also tested using binding of the antibody to its target(s) as expressed on cells. Analyzed is the binding of CC-2 variants to Nalm16 cells expressing FLT3 (FIG. 4) or Jurkat cells expressing CD3 (FIG. 6). Variants V1 to V9 (with V6 being V6-V6) were produced after transient transfection of CHO cells using the insert sequences listed above. The antibodies were purified by protein A affinity-and size exclusion-chromatography. […] To measure antibody binding to FLT3 and CD3 NALM16 (FLT3+) and Jurkat (CD3+) cells were incubated with the respective variants for 30 min, washed, stained with a goat anti human Fcγ-specific and PE-conjugated secondary antibody (Jackson Immuno Research), washed again and analyzed by flow cytometry (FACSCalibur, BD Biosciences)."}
{"binder": "V6-V6 (bispecific antibody, human IgG1, kappa, also called CC-2; FLT3 (4G8) x CD3 (humanized hUCHT1) bispecific IgGsc) heavy: QVQLQQPGAELVKPGASLKLSCKSSGYTFTSYWMHWVRQRPGHGLEWIGEIDPSDSYKDYNQKFKDKATLTVDRSSNTAYMHLSSLTSDDSAVYYCARAITTTPFDFWGQGTTLTVSSASTKGPSVFPLAPSSKSTSGGTAALGCLVKDYFPEPVTVSWNSGALTSGVHTFPAVLQSSGLYSLSSVVTVPSSSLGTQTYICNVNHKPSNTKVDKKVEPKSCDKTHTCPPCPAPPVAGPSVFLFPPKPKDTLMISRTPEVTCVVVGVSHEDPEVKFNWYVDGVEVHNAKTKPREEQYNSTYRVVSVLTVLHQDWLNGKEYKCKVSNKQLPSPIEKTISKAKGQPREPQVYTLPPSRDELTKNQVSLTCLVKGFYPSDIAVEWESNGQPENNYKTTPPVLDSDGSFFLYSKLTVDKSRWQQGNVFSCSVMHEALHNHYTQKSLSLSPGKSGDIQMTQSPSSLSASVGDRVTITCRASQDIRNYLNWYQQKPGKAPKLLIYYTSRLESGVPSRFSGSGSGTDYTLTISSLQPEDFATYYCQQGNTLPWTFGQGTKVEIKGGGGSGGGGSGGGGSEVQLVESGGGLVQPGGSLRLSCAASGYSFTGYTMNWVRQAPGKGLEWVALINPYKGVSTYNQKFKDRFTISVDKSKNTAYLQMNSLRAEDTAVYYCARSGYYGDSDWYFDVWGQGTLVTVSS light: DIVLTQSPATLSVTPGDSVSLSCRASQSISNNLHWYQQKSHESPRLLIKYASQSISGIPSRFSGSGSGTDFTLSINSVETEDFGVYFCQQSNTWPYTFGGGTKLEIKRTVAAPSVFIFPPSDEQLKSGTASVVCLLNNFYPREAKVQWKVDNALQSGNSQESVTEQDSKDSTYSLSSTLTLSKADYEKHKVYACEVTHQGLSSPVTKSFNRGEC", "values": [{"measurement": "EC50", "result": "~1", "unit": "nM"}]}
